Paper PMC8430805

Assays:
[1] = target: LysB endolysin (putative N-acetylmuramoyl-L-alanine amidase) from the prophage of Clostridium botuli (Clostridium botulinum E3 strain Alaska E43 (prophage)); test: SEC
[2] = target: LysB endolysin (putative N-acetylmuramoyl-L-alanine amidase) from the prophage of Clostridium botuli (Clostridium botulinum E3 strain Alaska E43 (prophage)); test: AUC

## LysB endolysin (putative N-acetylmuramoyl-L-alanine amidase) from the prophage of Clostridium botuli (enzyme)
[1]
  stoichiometry N: 2
[2]
  stoichiometry N: 2
